Columns and labels:
[1] = Glucose and triolein oxidation, tissue glucose utilization and BAT oxygen uptake in mice treated with ZAG; format: in vivo
Source text: FIG. 12E is a graphical diagraph showing tissue Rg in ob/ob mice administered ZAG, c, p<0.001 from PBS.
FIG. 24 is a graphical diagram showing the oxidation of D-[U-^14C glucose] to ^14CO2 in ob/ob mice.
FIG. 25 is a graphical diagram showing production of ^14CO^2 from [^14C carboxy] triolein in ob/ob mice.

[2] = ZAG i.v. administration to ob/ob mice, 5 day study (body weight, temperature, plasma metabolites); format: in vivo
Method: (§1) Animals—Mice—Homozygous obese (ob/ob) mice from the colony maintained at Aston University were used in the present study. The origin and characteristics of Aston ob/ob mice have been previously described. Male mice (20-21 weeks old, weight 90-100 g) were grouped into three per cage in an air conditioned room at 22 ±2° C. with a 12 h-light:12 h-dark cycle and fed a rat and mouse breeding diet (Special Diet Services, Witham, UK) and tap water ad libitum. They were administered ZAG (35 μg) in PBS (100 μl) b.d. by i.v. administration and body weight and food and water intake were monitored daily. Control mice received PBS alone. Body temperature was measured daily by the use of a rectal thermometer (RS Components, Northants, UK). All animal experiments were carried out in accordance with the U.K. Animals (Scientific Procedures) Act 1986.
(§2) Serum Metabolite Determinations—Non-esterified fatty acids (NEFA) were determined using a Wako-ASC-ACOD kit (Wako Chemical GmbH, Neuss, Germany). Triglycerides were determined using a Triglyceride kit (Sigma Chemical Co., Poole, United Kingdom) and 3-hydroxybutyrate by a quantitative enzymatic determination kit (Sigma). Glucose was measured using a glucose analyser (Beckman, Irvine, Calif.) and glycerol was determined enzymatically using the method of Wieland as described in “Methods of Enzymatic Analysis” (Ed, Bergmeyer, H. U.) Vol. 3, pp1404-1409, published by Academic Press, London (1974).

[3] = system: protein expression in WAT, BAT and gastrocnemius muscle; assay: Western blot of WAT, BAT and gastrocnemius muscle of rats treated with ZAG; format: in vivo, Wistar rats
Method: Samples of cytosolic protein (10 μg) were resolved on 12% sodium dodecylsuiphate polyacrylamide gel electrophoresis and the proteins were then transferred onto 0.45 μm nitrocellulose menibranes, which had been blocked with 5% N,Tarvel in ids-buffered saline, pH 7.5, at 4° C. overnight, and following four 15 min washes with 0.1% Tween in PBS, incubation with the secondary antibody was performed for 1 h at room temperature. Development was by ECL.

[4] = system: rat epididymal adipocytes; assay: Lipolytic activity in rat adipocytes; format: cell-based; conditions: concentrations between 233 and 700 nM
Method: Lipolytic Activity in Rat Adipocytes—White adipocytes were prepared from finely minced epididymal adipose tissue of male Wistar rats (400 g) using collagenase digestion, as described (Beck S A, et al. Production of lipolytic and proteolytic factors by a murine tumor-producing cachexia in the host. Cancer Res 47:5919-5923, 1987), Lipolytic activity was determined by incubating 10^5-2×10^5 adipocytes for 2 h in 1 ml Krebs-Ringer bicarbonate buffer, pH 7.2, and the extent of lipolysis was determined by measuring the glycerol released (Wieland O. Glycerol U V method. Methods of Enzymatic Analysis, edited by Bergmeyer H U, Academic Press, London, pp 1404-1409, 1974). Spontaneous glycerol release was measured by incubating adipocytes alone. Lipolytic activity was expressed as μmol glycerol released/10^5 adipocytes/2 h.

[5] = 21 day study of ZAG in ob/ob mice; format: in vivo
Method: FIG. 7A is a graphical diagram showing weight loss of the ob/ob mice during the 21 day study. ZAG was injected at days 1, 4, 5, 8, 13, 16, 18, and 19; PBS was injected at the same time points.
as §1, §2

[6] = ob/ob mice treated for 120 h, wet weight

B1: Zinc-α2-glycoprotein (protein, listed as Homo sapiens)
chain: QENQDGRYSLTYIYTGLSKHVEDVPAFQALGSLNDLQFFRYNSKDRKSQPMGLWRQVEGMEDWKEDSQLQKAREDMETLKDIVEYYNDSNGSHVLQGRFGCEIENNRSSGAFWKYYYDGKDYIEFNKEIPAWVPFDPAAQITKQKWEAEPVYVQRAKAYLEEECPATLRKYLKYSKNILDRQDPPSVVVTSHQAPGEKKKLKCLAYDFYPGKIDVHWTRAGQVQEPELRGDVLHNGNGTYQSWVVVAVPPQDTAPYSCHVQHSSLAQPLVVPWEAS
notes: recombinant human Zinc-α2-glycoprotein, lipid mobilizing factor, expressed in HEK293F cells
glucose utilization/oxidation by brain, heart, BAT and gastrocnemius muscle [1]: increased glucose utilizationloxidation
production of 14CO2 from D-[U-14C] glucose and [14C carboxy] triolein [1]: increased production
BAT ([2]; ob/ob mice treated for 120 h): 0.73 ± 0.12 p < 0.01 g
NEFA (plasma) ([2]; ob/ob mice treated for 120 h): 0.73 ± 0.05 p < 0.001 mEq/L
TG (plasma) ([2]; ob/ob mice treated for 120 h): 0.9 ± 0.1 p < 0.05 mmol/L
Gastrocncinius [2, 6]: 1.12 ± 0.14 p < 0.01 g
Soleus [2, 6]: 0.80 ± 0.09 p < 0.01 g
rise of body temperature ([2]; ob/ob mice, after 4 days of ZAG administration): 0.4 °C
weight difference between the groups ([2]; ob/ob mice, after 5 days, ZAG vs PBS): 3.5 g
expression of glucose transporter 4 (GLUT4) in BAT, WAT and skeletal muscle ([3]; 10 days): increased expression
expression of phosphorylated forms of PKR and eIF2 α-subunit in gastrocnemius muscle ([3]; total amount did not change): significant reduction
glycerol release [4]: dose-related increase
urinary glucose excretion ([5]; first 5 days and 21 day study): progressive decrease
peak body temperature ([5]; just before maximum weight loss): 38.1 °C
Start weight ([5]; ob/ob mice, 21 day study, before treatment, in g): 93.1 ± 1.9
BAT ([5]; ob/ob mice, Day 21 (Table 3)): 0.41 ± 0.35 g
Gastrocnemius ([5]; ob/ob mice, Day 21 (Table 3)): 0.39 ± 0.12 g
Soleus ([5]; ob/ob mice, Day 21 (Table 3)): 0.18 ± 0.07 g

Source: patent US20210315969A1, “GLYCOPROTEINS HAVING LIPID MOBILIZING PROPERTIES AND THERAPEUTIC USES THEREOF” (Aston University, priority 2008, published 2021)
